Assay: yeast display, Sf9 membrane polyspecificity reagent, FACS + sequencing; frameworks hold sequencing errors
Outline: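 Galactose-induced (36–48 hours) yeast carrying a synthetic nanobody display library were exposed to 10% biotinylated, detergent-solubilized Sf9 membrane reagent at 4 °C for 1 hour. FACS followed streptavidin microbead enrichment, using low and high (top ~1%) gates for expression (anti-HA) and reagent binding (streptavidin). Colony PCR, MiSeq 2 × 250 sequencing and CDR-length filtering followed. Labels for polyreactivity reflect the gate of origin.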

Sequence	polyreactivity (PSR sort gate)
QVQLVESGGGLVQAGGSLRLSCAASGSTFVYNTMGWYRQAPGKERELVAAISKSGTNTLYADSVKGRFTISRDNAKNTVYLQMNSLKPEDTAVYYCAVRSVPRWFTELDYWGQGTQVTVSS	low polyreactivity
QVQLVESGGGLVQAGGSLRLSCAASGSTFVYYAMGGYRQAPGKERELDAAITSSGVRTYYADSVKGRFTISRDNAKNTVYLQMNSLKPEVTAVYYCAKRSTRLYSFTYQGYGYWGQGTQVTVSS	high polyreactivity
QVQLVESGGGLVQAGGSLRLSCAASGSTFVYYAMGWYRQAPGKEREFVAAISISTGSTYYADSVKGRFTISRDNAKNTVYLQMNSLKPEDTAVYYCAVDWFLGGYDDLDYWGQGTQVTVSS	low polyreactivity
QVQLVESGGGLVQAGGSLRLSCAASGSTFVYYAMGWYRQAPGKEREFVAAISTNGGSTYYADSVKGRFTISRDNAKNTVYLQMNSLKPEDTAVYYCAARWYWGQGTQVTVSS	high polyreactivity
QVQLVESGGGLVQAGGSLRLSCAASGSTFVYYDMGGYRPAPGKERELVADISDSGGSTNYADSVKGRFTISRDNAKNTVYLHMNSLKPEDTAVYYCAADSADPTEYDYWGQGTQVTVSS	low polyreactivity
QVQLVESGGGLVQAGGSLRLSCAASGSTFWAYAMGWSRQAPGKERELVAAITSGGSTYADSVKGRFTISRDNAKNTVYLQMNSLKPEDTAVYYCAADVYYSGWWFDYWGQGTQVTVSS	high polyreactivity
QVQLVESGGGLVQAGGSLRLSCAASGSTFWAYVMGWYRQAPGKESELVAAISKSGVRTHYADSVKGRFTISRDNAKNTVYLQMNSLKPEDTAVYYCAAEWSWGPYRFDYWGQGTQVTVSS	high polyreactivity
QVQLVESGGGLVQAGGSLRLSCAASGSTFWDYTMGWYRQAPGKERELVAAINYSDGSTYYADSVKGRFTISRDNAKNTVYLQMNSLKPEDTAVYYCAAGSDPTGRRYDYWGQGTQVTVSS	low polyreactivity
QVQLVESGGGLVQAGGSLRLSCAASGSTFWEYVMGWYRQAPGKERELVAAISDSGGSTYYADSVKGRFTISRDNAKNTVYLQMNSLKPEDTAVYYCNADWSWYNYYDFDYWGQGTQVTVSS	low polyreactivity
QVQLVESGGGLVQAGGSLRLSCAASGSTFWFYAMGWYRQAPGKERELVAANSRSSGSTYYADSVKGRFTISRDNAKNTVYLQMNSLKPEDTAVFSCAAVEPDRDYGYWGQGTQVTVSS	low polyreactivity
QVQLVESGGGLVQAGGSLRLSCAASGSTFWFYAMGWYRQAPGKERELVATITIGGRTYADSVKGRFTISRDNAKNTVYLQMNTLKPEDTAVYYCAARRGRLEYVNGRYDYWGQGTQVTVSS	low polyreactivity
QVQLVESGGGLVQAGGSLRLSCAASGSTFWGYGMGWYRQAPGKERELVATINQSAGSTYYADSVKGRFTISRDNAKNTVYLQLNSLNPEDPAAYYCATDLIQGAAPFRYDYWGQGTQVTVSS	low polyreactivity
QVQLVESGGGLVQAGGSLRLSCAASGSTFWGYTMGWYRQAPGKERELVAAITGSGGSTNYADSVKGRFTISRDNANNTVYLQMNSLKPEDTAVYYCATQGITPSNSYDYWGQGTQVTVSS	low polyreactivity
QVQLVESGGGLVQAGGSLRLSCAASGSTFWHNAMGWYRTAHGKERELVAGISSIGGRTYYADSVKGRFTISRDNAKNTVYLQMNSLKQEDTAVYYCAARYRRTIPWFAPGTDHNYWGQGTQVTVSS	high polyreactivity
QVQLVESGGGLVQAGGSLRLSCAASGSTFWHYAMGWYRQAPGKERELVAAISSGGGRTYYADSVKGRFTISRDNAKNTVYLQMNSLKPEDTAVYYCAARYYFYDYWGQGTQVTVSS	high polyreactivity
QVQLVESGGGLVQAGGSLRLSCAASGSTFWINTMGWYRQAPGKERELVAAITRSGGNTYYADSVKGRFTISRDNAKNTVYLQMNSLKPEDTAVYYCAAAYTRKYVTHGYWGQGTQVTVSS	high polyreactivity
QVQLVESGGGLVQAGGSLRLSCAASGSTFWIYAMGWYRQPPGKERELVAAISWSTGRTYYADSVKGRFTISRDNAKNTVYLQMNSLKPEDTAVYYCNAGPQHNTLKLFYYWGQGTQVTVSS	low polyreactivity
QVQLVESGGGLVQAGGSLRLSCAASGSTFWLNAMGWYRQAPGKEREYVAAITWSSGSTYYADSVKGRFTISRDNAKNTVYLQMNSLKPEDTAVYYCAADGRYVRIRGDYWGQGTQVTVSS	low polyreactivity
QVQLVESGGGLVQAGGSLRLSCAASGSTFWLYAIGWYRQAPGTERELVAAIRSGDRTNYADSVKGRFTISRDNAKKTVYLEMNSLKPEDTAVYYCAAVAYLNWTPQYYWGQGTQVTVSS	low polyreactivity
QVQLVESGGGLVQAGGSLRLSCAASGSTFWLYVMGWYRQAPGKERELVAAISSSGGRTYYADSVKGRFTISRDNAKNTVYLQMNSLKPEDTAVYYCNKYGTALWRYYYWGQGTQVTVSS	high polyreactivity
QVQLVESGGGLVQAGGSLRLSCAASGSTFWNYAMGWYRQAPGKERELVAAISQRGGSTYYADSVKGRFTISRDNAKNTVYLQMNSLKPEDTAVYYCNIDYAGELDYWGQGTQVTVSS	high polyreactivity

Sequence	polyreactivity (PSR sort gate)
QVQLVESGGGLVQAGGSLRLSCAASGSTFWPNAMGWYRQAPGKERELVAAITGGGGTNYADSVKGRFTISRDNAKNTVYLQMNSLKPEDTAVYYCAAKKVNSRSHVKYYYWGQGTQVTVSS	high polyreactivity
QVQLVESGGGLVQAGGSLRLSCAASGSTFWPYAMGWYRQAPGKERELVAAITRSGGSTYYADSVKGRFTISRDNAKNTVYLQMNSLKPEDTAVYYCAKYTSSRFEYDYWGQGTQVTVSS	low polyreactivity
QVQLVESGGGLVQAGGSLRLSCAASGSTFWSYAMGWYRQAPGKERELVADIRWSGDGTYYADSVKGRFTISRDNAKITVYLQMNSLKPEDTAVYYCAADYFPVNSYGYWGQGTQVTVSS	low polyreactivity
QVQLVESGGGLVQAGGSLRLSCAASGSTFWSYTMGWYRQAPGKERELVAAIRFSGGSTYYADSVKGRFTISRDNAKNTVYLQMNSLKPEDTAVYYCAAGYYRRPYEYWGQGTQVTVSS	low polyreactivity
QVQLVESGGGLVQAGGSLRLSCAASGSTFWTNAMGWFRHAPGKVRELVATISKTTGRTNYADSEKGRFTISRDNAKNTVYLQMNSLKPEDTAVYYCAAEPYSWDTWVDYDYWGIGTQVTVSS	low polyreactivity
QVQLVESGGGLVQAGGSLRLSCAASGSTFWTNDMGWYRQAPGKERELVAAISQSAGDTYYADSVKGRFTISRDNAKNTVYLQMNSLKPEDTAVYYCAADLVFYPFTWDGYYYWGQGTQVTVSS	low polyreactivity
QVQLVESGGGLVQAGGSLRLSCAASGSTFWVNAMGWYRQAPGKVRELVAAIRRGGSTKYADSVKGRFTISRDNAKNTFYLQINSLKPEDTAVSYCAADAPGHEYYYWGQGTQVTVSS	high polyreactivity
QVQLVESGGGLVQAGGSLRLSCAASGSTFWVYAMGWYRQAPGKERELVATISRGGSTNYADSVKGRFTISRDNAKNTVYLQMNSLKPEDTAVYYCAAPRFYGYGYEYCGQGTQVTVSS	low polyreactivity
QVQLVESGGGLVQAGGSLRLSCAASGSTFWWNTMGWYRQAPWKERELVADIRTSGGGTYYADSVKGRFTISRDNAKNTVYLQMNSLKPEDTAVYYCNADPKWEMGSWGQGTQVTVSS	low polyreactivity
QVQLVESGGGLVQAGGSLRLSCAASGSTFWWNTRGWYRQAPGKERELVADIRTSGGGTYYADSVKGRFTISLDNAKNTFYLQMNSLKPEDTAVYYCNADPKWEMGSWGQGTQVTVSS	low polyreactivity
QVQLVESGGGLVQAGGSLRLSCAASGSTFWYYAMGWYRQAPGKESELVAGITQSGGSTYYADSVKGRFTISRDNAKNTVYLQMNSLKPEDTAVYYCAKDGRVSGDFDYWGQGTQVTVSS	low polyreactivity
QVQLVESGGGLVQAGGSLRLSCAASGSTFWYYAMGWYRQEPGKERELVASITYSGGSTYYADSVKGRFTISRDNAKNTVYLQMNSLKPEDTAVYYCAAQSPAYYTKSYWGQGTQVTVSS	low polyreactivity
QVQLVESGGGLVQAGGSLRLSCAASGSTFWYYGMGWYRQAPGKERELVAAITRGGSTYYADSVKGRFTISRDNAKNTVYLQMISLNPEDTAVYYCAAGISVRWSPSYYYWGQGTQVTVSS	high polyreactivity
QVQLVESGGGLVQAGGSLRLSCAASGSTFWYYVMGWYRQAPGKERELVAAIDWTGDSTYYADSVKGRFTISRDNAKNTVYLQMNSLKPVDTAVYYCAAQKYYPYSYYLNNDYWGLGTQVTVSS	low polyreactivity
QVQLVESGGGLVQAGGSLRLSCAASGSTFYANAMGWYRQAPGKERELVAAISSRGGSTSYADSVKGRFTISRDNAKNTVYLQMNSLKPEDTAVYYCNKVTRYYYRGFDYWGQGTQVTVSS	high polyreactivity
QVQLVESGGGLVQAGGSLRLSCAASGSTFYANAMGWYRQAPGKERELVAAITRSGAGTYYADSVKGRFTISRDNAKNTVYLQMNSLKPEDTAVYYCAKRTKTPTGYVWGGYDYWGQGTQVTVSS	high polyreactivity
QVQLVESGGGLVQAGGSLRLSCAASGSTFYANTMGWYRTAPGKERELVAAITYGGGNTYYADSVKGRFTISRDNAKNTVYLQMNSLKPEDTAVYYCAARDYVSYYTRFDYWGQGTQVTVSS	high polyreactivity
QVQLVESGGGLVQAGGSLRLSCAASGSTFYAYAMGWYRQAPGKERELVAAIDSGGSTYYADSVKGRFTISRDNAKNTFYLEMNSLKPEDTAVYYCAVRHRYTRAYWGRDYWGQGTQVTVSS	low polyreactivity
QVQLVESGGGLVQAGGSLRLSCAASGSTFYAYAMGWYRQAPGKERELVAAINSVGSTYYADSVKGRFTISRDNAKNTVYLQMNSLKPEDTAVYYCARGVDYPTSQPPYFRHDYWGQGTQVTVSS	low polyreactivity
QVQLVESGGGLVQAGGSLRLSCAASGSTFYAYTKGWSRQAPGKERELVADISSGGGTYYADSVKGRFTISRDNAKNTVYLQMNSLKPEDTAVYYCNADWRVGRQLSKAKIPYDYWGQGTQVTVSS	low polyreactivity

— the nanobody polyreactivity screen of Harvey et al. (2022)
